Experimental data from patent US12281162 (LANOVA MEDICINES DEVELOPMENT, dated 2025).

B1: 34-H2L2 (antibody, V domains shown)
VH: EVQLVESGGGLVKPGGSLRLSCAASGFTFSSYGMSWVRQTPGKGLEWVATISSGGSYTYYPDSVKGRFTISRDNAKNSLYLQMSSLRAEDTAVYYCARQGGDAMDYWGQGTLVTVSS
VL: DIQMTQSPSSLSASVGDRVTITCRASQSINNNLHWYQQKPGKAPKLLIYYASQSISGIPSRFSGSGSGTDFTLTISSVQPEDFATYFCQQSNSRLTFGGGTKVEIK
notes: humanized 34D3H1, VH v2 x VL v2
B2: 34-H2L3 (antibody, V domains shown)
VH: EVQLVESGGGLVKPGGSLRLSCAASGFTFSSYGMSWVRQTPGKGLEWVATISSGGSYTYYPDSVKGRFTISRDNAKNSLYLQMSSLRAEDTAVYYCARQGGDAMDYWGQGTLVTVSS
VL: DIQLTQSPSSLSASVGDRVTITCRASQSINNNLHWYQQKPGKSPKLLIYYASQSISGIPSRFSGSGSGTDFTLTISSVQPEDFATYFCQQSNSRLTFGGGTKLEIK
notes: humanized 34D3H1, VH v2 x VL v3
B3: 34-H1L3 (antibody, V domains shown)
VH: EVQLVESGGGLVKPGGSLRLSCAASGFTFSSYGMSWVRQAPGKGLEWVSTISSGGSYTYYPDSVKGRFTISRDNAKNSLYLQMNSLRAEDTAVYYCARQGGDAMDYWGQGTLVTVSS
VL: DIQLTQSPSSLSASVGDRVTITCRASQSINNNLHWYQQKPGKSPKLLIYYASQSISGIPSRFSGSGSGTDFTLTISSVQPEDFATYFCQQSNSRLTFGGGTKLEIK
notes: humanized 34D3H1, VH v1 x VL v3
B4: 34-H1L2 (antibody, V domains shown)
VH: EVQLVESGGGLVKPGGSLRLSCAASGFTFSSYGMSWVRQAPGKGLEWVSTISSGGSYTYYPDSVKGRFTISRDNAKNSLYLQMNSLRAEDTAVYYCARQGGDAMDYWGQGTLVTVSS
VL: DIQMTQSPSSLSASVGDRVTITCRASQSINNNLHWYQQKPGKAPKLLIYYASQSISGIPSRFSGSGSGTDFTLTISSVQPEDFATYFCQQSNSRLTFGGGTKVEIK
notes: humanized 34D3H1, VH v1 x VL v2
B5: 34-H1L4 (antibody, V domains shown)
VH: EVQLVESGGGLVKPGGSLRLSCAASGFTFSSYGMSWVRQAPGKGLEWVSTISSGGSYTYYPDSVKGRFTISRDNAKNSLYLQMNSLRAEDTAVYYCARQGGDAMDYWGQGTLVTVSS
VL: DIVLTQSPSSLSVSVGDRVTLTCRASQSINNNLHWYQQKPGKSPKLLIYYASQSISGIPSRFSGSGSGTDFTLTISSVQPEDFATYFCQQSNSRLTFGGGTKLEIK
notes: humanized 34D3H1, VH v1 x VL v4
B6: 34-H3L4 (antibody, V domains shown)
VH: EVHLVESGGGLVKPGGSLRLSCAASGFTFSSYGMSWVRQTPGKRLEWVATISSGGSYTYYPDSVKGRFTISRDNAKNSLNLQMSSLRAEDTAVYYCARQGGDAMDYWGQGTLVTVSS
VL: DIVLTQSPSSLSVSVGDRVTLTCRASQSINNNLHWYQQKPGKSPKLLIYYASQSISGIPSRFSGSGSGTDFTLTISSVQPEDFATYFCQQSNSRLTFGGGTKLEIK
notes: humanized 34D3H1, VH v3 x VL v4
B7: 34-H3L2 (antibody, V domains shown)
VH: EVHLVESGGGLVKPGGSLRLSCAASGFTFSSYGMSWVRQTPGKRLEWVATISSGGSYTYYPDSVKGRFTISRDNAKNSLNLQMSSLRAEDTAVYYCARQGGDAMDYWGQGTLVTVSS
VL: DIQMTQSPSSLSASVGDRVTITCRASQSINNNLHWYQQKPGKAPKLLIYYASQSISGIPSRFSGSGSGTDFTLTISSVQPEDFATYFCQQSNSRLTFGGGTKVEIK
notes: humanized 34D3H1, VH v3 x VL v2
B8: 34-H3L3 (antibody, V domains shown)
VH: EVHLVESGGGLVKPGGSLRLSCAASGFTFSSYGMSWVRQTPGKRLEWVATISSGGSYTYYPDSVKGRFTISRDNAKNSLNLQMSSLRAEDTAVYYCARQGGDAMDYWGQGTLVTVSS
VL: DIQLTQSPSSLSASVGDRVTITCRASQSINNNLHWYQQKPGKSPKLLIYYASQSISGIPSRFSGSGSGTDFTLTISSVQPEDFATYFCQQSNSRLTFGGGTKLEIK
notes: humanized 34D3H1, VH v3 x VL v3
B9: 34-H3L1 (antibody, V domains shown)
VH: EVHLVESGGGLVKPGGSLRLSCAASGFTFSSYGMSWVRQTPGKRLEWVATISSGGSYTYYPDSVKGRFTISRDNAKNSLNLQMSSLRAEDTAVYYCARQGGDAMDYWGQGTLVTVSS
VL: DIQMTQSPSSLSASVGDRVTITCRASQSINNNLHWYQQKPGKAPKLLIYYASQSISGVPSRFSGSGSGTDFTLTISSLQPEDFATYYCQQSNSRLTFGGGTKVEIK
notes: humanized 34D3H1, VH v3 x VL v1
B10: 34-H2L1 (antibody, V domains shown)
VH: EVQLVESGGGLVKPGGSLRLSCAASGFTFSSYGMSWVRQTPGKGLEWVATISSGGSYTYYPDSVKGRFTISRDNAKNSLYLQMSSLRAEDTAVYYCARQGGDAMDYWGQGTLVTVSS
VL: DIQMTQSPSSLSASVGDRVTITCRASQSINNNLHWYQQKPGKAPKLLIYYASQSISGVPSRFSGSGSGTDFTLTISSLQPEDFATYYCQQSNSRLTFGGGTKVEIK
notes: humanized 34D3H1, VH v2 x VL v1
B11: 34-H2L4 (antibody, V domains shown)
VH: EVQLVESGGGLVKPGGSLRLSCAASGFTFSSYGMSWVRQTPGKGLEWVATISSGGSYTYYPDSVKGRFTISRDNAKNSLYLQMSSLRAEDTAVYYCARQGGDAMDYWGQGTLVTVSS
VL: DIVLTQSPSSLSVSVGDRVTLTCRASQSINNNLHWYQQKPGKSPKLLIYYASQSISGIPSRFSGSGSGTDFTLTISSVQPEDFATYFCQQSNSRLTFGGGTKLEIK
notes: humanized 34D3H1, VH v2 x VL v4
B12: 37-H2L2 (antibody, V domains shown)
VH: EVQLVESGGGLVQPGGSLRLSCAASGFTFSDYWMNWVRQSPGKGLEWVAEIRLKSNNYATHYAESVKGRFTISRDNAKSSLYLQMNSLRAEDTAVYYCTRPLLWFRRYYAMDYWGQGTLVTVSS
VL: DIQMTQSPSSLSASVGDRVTITCSASQGISNYLNWYQQKPGKTVKLLIYYTSSLHSGVPSRFSGSGSGTDYTLTISSLQPEDFATYYCQQYSKLPFTFGQGTKLEIK
notes: humanized 37B9C4, VH v2 x VL v2
B13: 37-H1L2 (antibody, V domains shown)
VH: EVQLVESGGGLVQPGGSLRLSCAASGFTFSDYWMNWVRQAPGKGLEWVAEIRLKSNNYATHYAESVKGRFTISRDNAKNSLYLQMNSLRAEDTAVYYCARPLLWFRRYYAMDYWGQGTLVTVSS
VL: DIQMTQSPSSLSASVGDRVTITCSASQGISNYLNWYQQKPGKTVKLLIYYTSSLHSGVPSRFSGSGSGTDYTLTISSLQPEDFATYYCQQYSKLPFTFGQGTKLEIK
notes: humanized 37B9C4, VH v1 x VL v2
B14: 37-H1L3 (antibody, V domains shown)
VH: EVQLVESGGGLVQPGGSLRLSCAASGFTFSDYWMNWVRQAPGKGLEWVAEIRLKSNNYATHYAESVKGRFTISRDNAKNSLYLQMNSLRAEDTAVYYCARPLLWFRRYYAMDYWGQGTLVTVSS
VL: DIQMTQSPSSLSASVGDRITITCSASQGISNYLNWYQQKPGKTVKLLIYYTSSLHSGVPSRFSGSGSGTDYTLTISSLQPEDFATYYCQQYSKLPFTFGSGTKLEIK
notes: humanized 37B9C4, VH v1 x VL v3

Each binder was assayed against T1, human G-protein-coupled receptor family C group 5 member D (GPRC5D) (human, UniProt Q9NZD1 1-345) (assay: FACS, CHO-K1/GPRC5D).
T1 construct: whole, on cells; also called human GPRC5D protein
T1 sequence (Q9NZD1 whole entry): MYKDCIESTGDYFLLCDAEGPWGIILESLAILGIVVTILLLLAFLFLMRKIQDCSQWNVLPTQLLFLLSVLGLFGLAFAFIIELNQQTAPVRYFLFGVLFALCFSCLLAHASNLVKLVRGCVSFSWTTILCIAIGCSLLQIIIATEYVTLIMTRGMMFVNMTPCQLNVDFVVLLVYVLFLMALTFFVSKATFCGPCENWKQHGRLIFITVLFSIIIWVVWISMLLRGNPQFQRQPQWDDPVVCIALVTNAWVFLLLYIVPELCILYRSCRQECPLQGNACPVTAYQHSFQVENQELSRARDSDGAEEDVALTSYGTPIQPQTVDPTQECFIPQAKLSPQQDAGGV

Binder | Bottom | LogEC50 | Span | Top
B1 | 8740 | 0.625 | 170000 | 179000
B2 | 7060 | 0.583 | 179000 | 186000
B3 | 10600 | 0.573 | 175000 | 186000
B4 | 13900 | 0.584 | 168000 | 182000
B5 | 10300 | 0.6 | 179000 | 189000
B6 | 12800 | 0.598 | 180000 | 193000
B7 | 9040 | 0.646 | 171000 | 180000
B8 | 9120 | 0.651 | 184000 | 193000
B9 | 11100 | 0.521 | 167000 | 178000
B10 | 7850 | 0.619 | 179000 | 187000
B11 | 4390 | 0.609 | 188000 | 192000

Biological target: T1, human G-protein-coupled receptor family …
Experiment: FACS, CHO-K1/GPRC5D
Remark: another data set of the same source

Binder | Bottom | LogEC50 | Span | Top
B12 | 9380 | 0.345 | 166000 | 175000
B13 | 8850 | 0.35 | 173000 | 182000
B14 | 10400 | 0.233 | 163000 | 173000
